In patent CN104974246A (INST PASTEUR SHANGHAI CAS, dated 2015):

Columns and labels:
Assay in all cases: cell-based or functional assay
[1] = molecular target: HCV 1b亚型 PR79 毒株的 E2蛋白 (on virus) (hepatitis C virus subtype 1b, strain …)
[2] = molecular target: HCV 1b亚型 PR52B6M 毒株的 E2蛋白 (on virus) (hepatitis C virus subtype 1b, strain …)
[3] = molecular target: T1, HCV 2a亚型 JFH1 毒株的 E2蛋白 (on virus) (hepatitis C virus subtype 2a, strain …, UniProt Q99IB8 384-750)
T1 sequence: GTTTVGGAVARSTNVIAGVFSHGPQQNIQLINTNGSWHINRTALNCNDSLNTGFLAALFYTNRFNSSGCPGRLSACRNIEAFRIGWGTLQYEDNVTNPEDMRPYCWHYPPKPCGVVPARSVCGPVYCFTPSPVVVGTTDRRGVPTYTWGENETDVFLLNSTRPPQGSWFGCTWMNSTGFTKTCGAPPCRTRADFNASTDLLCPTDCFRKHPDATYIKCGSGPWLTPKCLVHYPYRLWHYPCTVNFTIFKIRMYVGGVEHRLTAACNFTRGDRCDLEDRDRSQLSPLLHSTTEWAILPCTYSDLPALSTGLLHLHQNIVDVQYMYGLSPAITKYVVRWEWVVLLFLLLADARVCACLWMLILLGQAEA

[4] = molecular target: HCV 2a亚型 PR79 毒株的 E2蛋白 (on virus) (hepatitis C virus subtype 2a, strain …)

Measured: 对 HCV真病毒的抑制率 (真病毒中和试验)

B1: 全人单克隆抗体7F2 (antibody, V domains shown)
VH: QVQLQQWGAGLLKPSETLSLTCAVYGGSFSGYYWNWIRQPPGKGLEWIGEINPRGTANHNPSLKSRVTISVGTSRNQFSLKLRAVTAADTAVYYCARGIHDTLTGYLAFYFDYWGQGTPVTVSS
VL: DIQMTQSPSSLSASVGDTVTITCRASQNIDRHLNWYQQKAGKAPKVLIYAASGLQSGVSSRFSGSGSGTEFTLTINDLEPEDFATYYCQQYYDTLGYTFGQGTKVEIK
> 90%: all assays above
